These results are taken from patent US8026218 (UNIVERSITY OF ARIZONA, dated 2011).

The term Ki denotes the equilibrium dissociation constant of an inhibitor or competing ligand from its target. Low readings indicate a stronger hold on the target, high ones a looser hold on the target.

One assay concerns the target T1, rat NK1 receptor (rat, UniProt P14600 1-407).
T1 construct: whole, on cells; Used as membrane preparations of transfected CHO cells; also called rNK1; rat neurokinin-1 receptor
Kind of assay: radioligand competition vs [3H]substance P, membranes of rNK1 CHO cells. On the technique in general: In a radioligand displacement assay an active substance lowers the binding of a labelled ligand.

In the next assay the target is T2, human NK1 receptor (human, UniProt P25103 1-407).
T2 construct: whole, on cells; Used as membrane preparations of transfected CHO cells; also called hNK1; human neurokinin-1 receptor
T2 sequence (P25103 whole entry): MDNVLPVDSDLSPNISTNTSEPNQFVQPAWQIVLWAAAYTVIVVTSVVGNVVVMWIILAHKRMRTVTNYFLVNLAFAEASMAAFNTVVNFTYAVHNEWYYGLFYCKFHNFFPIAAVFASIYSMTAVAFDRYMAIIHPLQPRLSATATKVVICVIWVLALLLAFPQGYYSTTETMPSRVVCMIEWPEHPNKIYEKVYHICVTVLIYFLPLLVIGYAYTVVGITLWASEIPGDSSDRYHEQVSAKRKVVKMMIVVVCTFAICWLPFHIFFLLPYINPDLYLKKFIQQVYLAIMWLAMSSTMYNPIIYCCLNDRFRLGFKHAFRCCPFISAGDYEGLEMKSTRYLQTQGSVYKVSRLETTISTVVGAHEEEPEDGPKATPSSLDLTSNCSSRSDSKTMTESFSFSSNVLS
As to the kind of experiment: radioligand competition vs [3H]substance P, membranes of hNK1 CHO cells.

Assay [1] addresses T3, human δ opioid receptor (human, UniProt P41143 1-372).
T3 construct: whole, on cells; Used as crude membrane preparations of the transfected cells; also called hDOR; DOR
Kind of assay: radioligand competition vs [3H]DPDPE, membranes of hDOR cells.

For a further assay, the target named is guinea pig NK1 receptor (guinea pig, UniProt P30547 1-407). Kind of assay: cell-based or functional assay.
guinea pig NK1 receptor, sequence (P30547 whole entry): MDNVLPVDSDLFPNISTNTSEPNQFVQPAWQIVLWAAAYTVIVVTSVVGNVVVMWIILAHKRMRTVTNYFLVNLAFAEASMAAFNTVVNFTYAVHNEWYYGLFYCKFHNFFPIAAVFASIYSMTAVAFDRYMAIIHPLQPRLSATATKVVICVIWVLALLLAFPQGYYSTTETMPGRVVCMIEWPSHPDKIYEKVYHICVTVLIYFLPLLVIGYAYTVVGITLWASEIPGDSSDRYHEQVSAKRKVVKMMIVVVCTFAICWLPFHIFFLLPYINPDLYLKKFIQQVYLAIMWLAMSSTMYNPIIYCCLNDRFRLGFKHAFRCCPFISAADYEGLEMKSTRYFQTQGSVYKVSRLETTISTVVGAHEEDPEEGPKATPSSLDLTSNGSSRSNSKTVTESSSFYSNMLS
Assay [2] deals with T3, human δ opioid receptor. As to the kind of experiment: cell-based or functional assay.
The target of assay [3] is µ opioid receptor of the guinea pig isolated ileum (guinea pig, UniProt P97266 1-98). Kind of assay: cell-based or functional assay.
µ opioid receptor of the guinea pig isolated ileum, sequence (P97266 whole entry): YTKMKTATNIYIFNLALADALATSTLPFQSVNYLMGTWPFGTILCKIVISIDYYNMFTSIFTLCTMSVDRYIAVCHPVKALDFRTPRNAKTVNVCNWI
A further assay has as its target rat µ opioid receptor (rat, UniProt P33535 1-398). As to the kind of experiment: cell-based or functional assay.

Bridge positions count the residues as written; N and C are the ends. Square brackets hold non-standard residues; d marks the D form. Ends that are not written are not given here. * marks the point of attachment. NMe‑Bn(CF3)2 = C-terminal N-methyl bis(trifluoromethyl)benzyl amide; NMeBn(CF3)2 = C-terminal N-methyl bis(trifluoromethyl)benzyl amide; NH(3,5-(CF3)2-benzyl) = FC(F)(F)c1cc(CN*)cc(C(F)(F)F)c1; OBzl(3,5-(CF3)2) = FC(F)(F)c1cc(CO*)cc(C(F)(F)F)c1; OBn(OMe)2 = C-terminal OBn(OMe)2 ester; OBn(CF3)2 = C-terminal Bn(CF3)2 ester; NMe(benzyl) = CN(Cc1ccccc1)*; Nle = CCCC[C@H](N)C(=O)O; Aib = CC(C)(N)C(=O)O; NHBn = c1ccc(CN*)cc1; OBn = c1ccc(CO*)cc1

rat µ opioid receptor, sequence (P33535 whole entry): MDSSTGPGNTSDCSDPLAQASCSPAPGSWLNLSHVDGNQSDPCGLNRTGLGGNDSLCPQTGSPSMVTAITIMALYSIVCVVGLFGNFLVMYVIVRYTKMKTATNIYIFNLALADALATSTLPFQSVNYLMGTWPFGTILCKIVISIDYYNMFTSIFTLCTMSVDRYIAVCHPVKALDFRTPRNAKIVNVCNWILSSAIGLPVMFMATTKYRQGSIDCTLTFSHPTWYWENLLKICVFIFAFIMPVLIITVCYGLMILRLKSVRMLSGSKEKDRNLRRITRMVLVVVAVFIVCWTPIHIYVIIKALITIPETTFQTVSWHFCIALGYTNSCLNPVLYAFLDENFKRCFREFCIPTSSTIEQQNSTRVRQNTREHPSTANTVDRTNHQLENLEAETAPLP
T1 sequence (P14600 whole entry): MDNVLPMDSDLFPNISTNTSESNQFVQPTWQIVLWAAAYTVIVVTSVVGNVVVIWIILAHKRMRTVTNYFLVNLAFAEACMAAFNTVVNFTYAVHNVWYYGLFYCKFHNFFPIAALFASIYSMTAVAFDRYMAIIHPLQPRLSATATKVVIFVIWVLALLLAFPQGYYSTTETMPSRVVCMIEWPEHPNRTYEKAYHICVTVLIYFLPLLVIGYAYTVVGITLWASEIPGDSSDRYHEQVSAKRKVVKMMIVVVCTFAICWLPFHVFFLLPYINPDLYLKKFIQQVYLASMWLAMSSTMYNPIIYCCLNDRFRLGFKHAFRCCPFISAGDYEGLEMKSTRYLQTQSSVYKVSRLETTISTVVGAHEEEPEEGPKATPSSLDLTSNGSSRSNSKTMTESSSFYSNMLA
T3 sequence (P41143 whole entry, stated change not applied): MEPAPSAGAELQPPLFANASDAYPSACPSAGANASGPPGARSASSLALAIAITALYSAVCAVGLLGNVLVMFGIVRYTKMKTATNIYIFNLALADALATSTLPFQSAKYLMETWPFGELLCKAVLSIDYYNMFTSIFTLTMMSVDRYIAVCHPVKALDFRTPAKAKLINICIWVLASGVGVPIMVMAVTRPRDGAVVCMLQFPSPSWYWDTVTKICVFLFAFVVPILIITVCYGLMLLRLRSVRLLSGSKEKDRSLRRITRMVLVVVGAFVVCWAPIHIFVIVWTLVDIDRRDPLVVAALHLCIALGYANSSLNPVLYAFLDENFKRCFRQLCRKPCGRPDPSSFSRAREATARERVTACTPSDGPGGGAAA

Consider Y[dA]GFPLW-{NH(3,5-(CF3)2-benzyl)} [TyrDAlaGlyPheProLeuTrpNHBn(CF3)2 (TY012)], for which the Ki is 32.6 nM in the assay with rat NK1 receptor and 0.61 nM in the assay with human NK1 receptor.
In turn, Y[dA]GFMPLW-{OBn(OMe)2} [TyrDAlaGlyPheMetProLeuTrpOBn(OMe)2 (TY030)] displayed a Ki with human δ opioid receptor [1] of 0.93 nM. Moreover, the Ki in the assay with rat NK1 receptor amounted to 9.53 nM. The “GPI/LMMP SP antagonist Ke” value in the assay with guinea pig NK1 receptor came to 4.1 nM. Moreover, in the assay with human δ opioid receptor [2], the “GTP binding hDOR EC50” value was 0.8 nM and the “GTP binding hDOR Emax” value turned out to be 61%.
Take Y[dA]GFPLW-NHBn [TyrDAlaGlyPheProLeuTrpNHBn (TY008)]: the Ki with rat NK1 receptor came to 803 nM; in the assay with human NK1 receptor, 14 nM.
The molecule Y[dA]GFPLW-{NMe‑Bn(CF3)2} [TyrDAlaGlyPheProLeuTrpNMeBn(CF3)2 (TY013)] yielded a Ki with rat NK1 receptor of 6.05 nM.
As to Y[dC]GF[dC]PLW-{NH(3,5-(CF3)2-benzyl)} (disulfide 2-5) [Tyr[DCysGlyPheDCys]ProLeuTrpNHBn(CF3)2 (TY037)], in the assay with guinea pig NK1 receptor, the “GPI/LMMP SP antagonist Ke” value worked out at 4.7 nM. Moreover, the “GPI/LMMP opioid(mu) agonist IC50” value in assay [3] was found to be 284 nM.
Consider YAGFXPLW (Dmt at 1; D-Ala at 2; Nle at 5 (X); C-terminal NH-Bn-3-(CF3) amide) [DmtDAlaGlyPheNleProLeuTrpNHBn-3-(CF3) (TY053)], for which the Ki amounted to 4.1 nM in the assay with human δ opioid receptor [1] and 1.04 nM in the assay with human NK1 receptor.
Y[dA]GFPLW-OBn [TyrDAlaGlyPheProLeuTrpOBn (TY011)] returned a Ki with rat NK1 receptor of 659 nM.
For Y[dA]GFM[Aib]LW-{OBn(CF3)2} [TyrDAlaGlyPheMetAibLeuTrpOBn(CF3)2 (TY022)], in the assay with rat µ opioid receptor, the “GTP binding rMOR EC50” value worked out at 100 nM and the “GTP binding rMOR Emax” value worked out at 32%. In addition, the “GTP binding hDOR Emax” value in the assay with human δ opioid receptor [2] turned out to be 28%.
Y[dA]GFMPLW-{NMeBn(CF3)2} [TyrDAlaGlyPheMetProLeuTrpNMeBn(CF3)2 (TY028)]: affinity with human δ opioid receptor [1] was put at a Ki of 2.15 nM. In addition, the inhibition constant (Ki) with rat NK1 receptor is 2.01 nM. In addition, the “GPI/LMMP opioid(mu) agonist IC50” value in assay [3] amounted to 971 nM. Besides, in the assay with human δ opioid receptor [2], the “GTP binding hDOR EC50” value came to 12.9 nM and the “GTP binding hDOR Emax” value stood at 59%.

B1: DmtDAlaGlyPheNleProLeuTrpNHBn-2,4-(OMe)2 (TY054) (peptide)
peptide: YAGFXPLW
modifications: not fully specified; Dmt at 1; D-Ala at 2; Nle at 5 (X); C-terminal NH-Bn-2,4-(OMe)2 amide
For B1, the inhibition constant Ki is 0.15 nM in the assay with human δ opioid receptor [1] and 0.952 nM with human NK1 receptor.
Taken in the same sequence, the figures for YAGFXPLW (Dmt at 1; D-Ala at 2; Nle at 5 (X); C-terminal NMe-3,5-Bn(CF3)2 amide) [DmtDAlaGlyPheNleProLeuTrpNMeBn(CF3)2 (TY052)] were 0.46 nM and 0.21 nM.
On to YAGFMPLW (D-Ala at 2; Met(O) (oxidized methionine) at 5; C-terminal O-3,5-Bn(CF3)2 ester) [TyrDAlaGlyPheMet(O)ProLeuTrpOBn(CF3)2 (TY023)], for which the Ki in the assay with human δ opioid receptor [1] came out at 5.08 nM; in the assay with rat NK1 receptor, 0.2 nM; in the assay with human NK1 receptor, 0.00015 nM. In addition, in the assay with guinea pig NK1 receptor, the “GPI/LMMP SP antagonist Ke” value came to 7.8 nM. Further, the “GPI/LMMP opioid(mu) agonist IC50” value in assay [3] amounted to 154 nM. For the same molecule, the “GTP binding hDOR Emax” value with human δ opioid receptor [2] is 52.8%.
As to Y[dA]GFM[dP]LW-{OBzl(3,5-(CF3)2)} [TyrDAlaGlyPheMetDProLeuTrpOBn(CF3)2 (TY024)], the affinity in the assay with human δ opioid receptor [1], expressed as Ki, was 13.2 nM. In the assay with rat µ opioid receptor, the “GTP binding rMOR EC50” value came out at 123 nM and the “GTP binding rMOR Emax” value was found to be 28%.
Turning to Y[dA]GFMPLW-OH [TyrDAlaGlyPheMetProLeuTrpOH (TY043)], the values for the Ki in the assay with human δ opioid receptor [1] and in the assay with rat NK1 receptor were 1.1 nM and 9850 nM, respectively. Also, the “GPI/LMMP opioid(mu) agonist IC50” value in assay [3] is 272 nM. Moreover, the “GTP binding hDOR EC50” value in the assay with human δ opioid receptor [2] is 0.51 nM. In the assay with human δ opioid receptor [2], the “GTP binding hDOR Emax” value was 62%.
In the case of Y[dA]GFPLW-{NMe(benzyl)} [TyrDAlaGlyPheProLeuTrpNMeBn (TY010)], the Ki was determined as 267 nM with rat NK1 receptor and 100 nM with human NK1 receptor.
Take Y[dC]GF[Nle]P[dC]W-{NH(3,5-(CF3)2-benzyl)} (disulfide 2-7) [Tyr[DCysGlyPheNleProDCys]TrpNHBn(CF3)2 (TY038)]: the “GPI/LMMP SP antagonist Ke” value in the assay with guinea pig NK1 receptor worked out at 12 nM. For the same molecule, the “GPI/LMMP opioid(mu) agonist IC50” value in assay [3] was 3 % at 1 uM.
